Molecular target: p53(1-360) (Homo sapiens, UniProt P04637 P04637:1-360)
Assay: EMSA; 0.10 nM DNA, 12 uM p53(1-360), PBS, 25 C, 2 ug poly(dI-dC) competitor, 1 h; 6% gel in TBM
Settings: tags: HiCaM tag (His6-calmodulin) removed by thrombin; expressed in E. coli BL21(DE3)Star; chain copies: 4 inferred; label: 32P
Protocol: Functional Assays of purified, untagged constructs—The excitation and emission spectra (excited at 488 nm) of eGFP were recorded from 300 to 700 nm at 25° C. in a Fluoromax-3 Spectrofluorometer. For p53(1-360), a ³²P-labelled restriction fragment harbouring an icosamer recognition sequence (5′-[…]-3′ (SEQ ID NO:6)) (0.10 nM) was incubated alone, with 50 ng/μL BSA or 12 μM p53(1-360) in PBS at 25° C. with 2 μg poly(dI-dC)˜poly(dl-dC) for 1 hour before separation in a 6% polyacrylamide gel in TBM buffer at 25 V/cm. The gel was then exposed to a phosphor screen for 1 hour and imaged in a Typhoon® Phosphorimager (GE Healthcare). Human p53(1-360) (7 μM) was also crosslinked with 0.125% glutaraldehyde at 25° C. for 12 min. and separated on SDS-PAGE, followed by Coomassie Blue staining (Poon et al. 2007).

p53(1-360), sequence (P04637 1-360, one chain of several): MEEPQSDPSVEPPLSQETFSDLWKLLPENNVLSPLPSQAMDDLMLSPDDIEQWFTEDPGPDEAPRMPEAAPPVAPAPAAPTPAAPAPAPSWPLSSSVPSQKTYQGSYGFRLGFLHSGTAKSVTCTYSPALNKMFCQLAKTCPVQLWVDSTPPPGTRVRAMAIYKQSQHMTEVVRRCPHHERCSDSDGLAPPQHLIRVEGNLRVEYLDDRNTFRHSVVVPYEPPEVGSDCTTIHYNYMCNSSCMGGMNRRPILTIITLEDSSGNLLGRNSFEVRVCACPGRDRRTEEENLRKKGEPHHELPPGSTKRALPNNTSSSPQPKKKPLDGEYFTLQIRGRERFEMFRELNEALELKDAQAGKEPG

B1: p53 icosamer recognition sequence (dsDNA)
DNA 1: AGGCATGTCTAGGCATGTCT
DNA 2: AGACATGCCTAGACATGCCT
binding result: binds

— US20100297734, “Fusion Tag Comprising an Affinity Tag and an EF-Hand Motif Containing Polypeptide and Methods of Use Thereof” (University Health Network, published 2010)
